{"source": "paper PMC5389574", "about": "(Nucleic Acids Research, 2016)", "binders": {"B1": {"name": "recombinant Sub1 (natural protein, S. cerevisiae, UniProt P54000 1-292, looked up)", "chain": "MSYYNRYRNKRRSDNGGGNLSNSNNNNGGMPSGLSASDAIFDLGKNKRVTVRQFRNINLIDIREYYLDSSTGEMKPGKKGISLTEDLYDELLKHRLNIDEALRRLGSKRPKTKMVRLLSDDEYEDDNNNDSTNNDKDKNGKDKNSPKKRREDKSKASNESHDLEPRSKKKKPAPPTLLPHEENIQNAEREANATLIIPGQAGRKQQEERKQKEKEEAEEAKAKAVAEQEKEAKAKEKIAEPEPEPVPTLQAKKEDIVSNINESKDANSSDEEFAQSLEAEMNKAEDDISEEE"}}, "target": "T1, recombinant Rpb4/Rpb7-6His (S. cerevisiae, UniProt P20433 1-221; P34087 1-171)", "T1 sequence (looked up) 1": "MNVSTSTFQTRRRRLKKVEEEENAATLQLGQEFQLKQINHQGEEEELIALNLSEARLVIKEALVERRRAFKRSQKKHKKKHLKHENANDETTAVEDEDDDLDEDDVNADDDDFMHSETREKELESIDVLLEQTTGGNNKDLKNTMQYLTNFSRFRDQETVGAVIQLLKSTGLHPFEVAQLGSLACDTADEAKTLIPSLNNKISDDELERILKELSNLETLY", "T1 sequence (looked up) 2": "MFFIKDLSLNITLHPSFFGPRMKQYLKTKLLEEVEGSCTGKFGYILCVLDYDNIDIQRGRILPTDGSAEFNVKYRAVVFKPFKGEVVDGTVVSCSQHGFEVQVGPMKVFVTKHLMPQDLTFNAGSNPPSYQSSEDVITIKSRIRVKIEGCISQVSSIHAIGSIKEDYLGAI", "assay": "pull-down", "data": [{"binder": "B1", "values": [{"measurement": "binding result", "value": "binds"}]}]}
